Like-named read-outs stand apart in the source and are kept apart here. *1 amine or outer side, *2 acyl side, *3 side chain or, on linkers, in order; H or OH if unused. Bridges are numbered along the chain shown (N, C = ends). Primed or numbered codes have the meaning given here. [ ]: non-standard residue; d: D form. Phe(4-OMe)(3) = O-methyl-L-tyrosine (4-methoxy-L-phenylalanine), COc1ccc(C[C@H](N[*:1])C(=O)[*:2])cc1; Phe(4-OMe) = 4-methoxy-L-phenylalanine (O-methyl-L-tyrosine), COc1ccc(C[C@H](N[*:1])C(=O)[*:2])cc1; Phe(4-OMe)(4) = O-methyl-L-tyrosine, COc1ccc(C[C@H](N[*:1])C(=O)[*:2])cc1; Trp(6-Cl) = N[C@@H](Cc1c[nH]c2cc(Cl)ccc12)C(=O)O; Phe(4-CONH2) = NC(=O)c1ccc(C[C@H](N)C(=O)O)cc1; 2Nal = N[C@@H](Cc1ccc2ccccc2c1)C(=O)O; AEF = NCCOc1ccc(C[C@H](N)C(=O)O)cc1; Pen = CC(C)(S)[C@H](N)C(=O)O; αMeK = C[C@](N)(CCCCN)C(=O)O; Abu = CC[C@H](N)C(=O)O; Aib = CC(C)(N)C(=O)O
B1: Ac-[Pen]-QTWQ-[Pen]-YW-[(D)Asn]-ENG-NH2 (peptide)
peptide: Ac-[Pen]QTWQ[Pen]YW[dN]ENG-NH2
modifications: disulfide 1-6
SMILES: CC(=O)N[C@@H]1C(=O)N[C@@H](CCC(N)=O)C(=O)N[C@@H]([C@@H](C)O)C(=O)N[C@@H](Cc2c[nH]c3ccccc23)C(=O)N[C@@H](CCC(N)=O)C(=O)N[C@H](C(=O)N[C@@H](Cc2ccc(O)cc2)C(=O)N[C@@H](Cc2c[nH]c3ccccc23)C(=O)N[C@H](CC(N)=O)C(=O)N[C@@H](CCC(=O)O)C(=O)N[C@@H](CC(N)=O)C(=O)NCC(N)=O)C(C)(C)SSC1(C)C
B2: isovaleric acid-[Pen]-QTWQ[Pen]-[Phe(4-OMe)]-[2-Nal]-[α-MeLys]-[Lys(Ac)]-NG-NH2 (peptide)
peptide: XQTWQXFXKKNG
modifications: N-terminal isovaleric acid; Pen-Pen disulfide; Phe(4-OMe); 2-Nal; α-MeLys; Lys(Ac); NH2
B3: succinic acid-[Pen]-QTWQ[Pen]-[Phe(4-OMe)]-[2-Nal]-[α-MeLys]-[Lys(Ac)]-NG-NH2 (peptide)
peptide: XQTWQXFXKKNG
modifications: N-terminal succinic acid; Pen-Pen disulfide; Phe(4-OMe); 2-Nal; α-MeLys; Lys(Ac); NH2

Key:
IL23R_huFC [1] = target: T1, IL23R_huFC (human, UniProt Q5VWK5 24-353); assay: IL23-IL23R competitive binding ELISA
T1 sequence (looked up): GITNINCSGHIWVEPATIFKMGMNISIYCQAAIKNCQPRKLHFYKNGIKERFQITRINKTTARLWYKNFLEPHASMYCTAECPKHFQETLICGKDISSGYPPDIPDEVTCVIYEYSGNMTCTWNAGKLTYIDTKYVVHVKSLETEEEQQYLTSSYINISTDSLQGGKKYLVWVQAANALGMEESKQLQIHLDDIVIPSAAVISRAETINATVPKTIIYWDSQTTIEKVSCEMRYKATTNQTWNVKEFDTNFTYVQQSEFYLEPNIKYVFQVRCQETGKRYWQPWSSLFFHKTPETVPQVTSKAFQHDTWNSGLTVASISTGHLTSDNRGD

Rat IL-23R_huFC [2] = target: Rat IL-23R_huFC (rat); assay: rat ELISA vs IL-23
Rat IL-23R_huFC [3] = target: T2, Rat IL-23R_huFC (rat, UniProt F1LX96 39-369); assay: rat IL-23R competitive binding ELISA
T2 sequence: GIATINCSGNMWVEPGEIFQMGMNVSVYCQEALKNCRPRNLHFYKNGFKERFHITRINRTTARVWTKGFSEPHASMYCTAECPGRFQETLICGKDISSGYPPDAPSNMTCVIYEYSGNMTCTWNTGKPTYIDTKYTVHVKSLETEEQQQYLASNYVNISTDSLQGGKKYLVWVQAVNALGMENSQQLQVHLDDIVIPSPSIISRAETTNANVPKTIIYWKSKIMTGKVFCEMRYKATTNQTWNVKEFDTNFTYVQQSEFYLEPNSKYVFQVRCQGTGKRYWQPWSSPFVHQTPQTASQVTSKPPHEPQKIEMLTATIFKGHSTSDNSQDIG

[4] = target: T3, IL-23R on human cells (IL-23R-expressing DB cells; human NK cells) (human, UniProt Q5VWK5 24-629); assay: cell-based or functional assay
T3 sequence (looked up): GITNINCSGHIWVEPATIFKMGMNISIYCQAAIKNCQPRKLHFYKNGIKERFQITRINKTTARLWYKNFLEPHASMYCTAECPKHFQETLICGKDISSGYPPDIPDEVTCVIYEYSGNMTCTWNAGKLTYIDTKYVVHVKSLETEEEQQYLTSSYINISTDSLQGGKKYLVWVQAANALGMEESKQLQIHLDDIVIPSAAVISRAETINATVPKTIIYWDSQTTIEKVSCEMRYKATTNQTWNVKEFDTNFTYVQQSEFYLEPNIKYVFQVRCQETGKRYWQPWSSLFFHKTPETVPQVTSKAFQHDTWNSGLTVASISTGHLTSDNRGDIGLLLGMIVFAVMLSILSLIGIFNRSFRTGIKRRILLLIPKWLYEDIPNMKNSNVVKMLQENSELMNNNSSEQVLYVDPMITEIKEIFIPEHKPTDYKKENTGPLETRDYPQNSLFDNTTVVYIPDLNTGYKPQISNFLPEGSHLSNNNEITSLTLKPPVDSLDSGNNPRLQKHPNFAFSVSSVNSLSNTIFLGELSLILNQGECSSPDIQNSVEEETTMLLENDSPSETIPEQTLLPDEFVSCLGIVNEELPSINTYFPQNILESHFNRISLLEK

Rat IL-23R_huFC [5] = target: Rat IL-23R_huFC (rat); assay: rat ELISA vs IL-23; remark: listed apart in the source
IL23R_huFC [6] = target: T4, IL23R_huFC (human, UniProt Q5VWK5 24-353); assay: human ELISA vs IL-23
T4 sequence (looked up): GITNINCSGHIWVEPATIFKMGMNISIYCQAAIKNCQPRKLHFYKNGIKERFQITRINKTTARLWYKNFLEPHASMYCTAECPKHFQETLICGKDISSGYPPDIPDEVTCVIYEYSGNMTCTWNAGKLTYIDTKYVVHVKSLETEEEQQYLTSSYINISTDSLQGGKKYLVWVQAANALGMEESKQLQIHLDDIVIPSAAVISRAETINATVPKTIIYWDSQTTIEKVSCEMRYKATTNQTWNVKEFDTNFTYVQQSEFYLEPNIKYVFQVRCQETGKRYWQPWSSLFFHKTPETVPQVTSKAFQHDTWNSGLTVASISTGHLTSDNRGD

IL23R_huFC [7] = target: T4, IL23R_huFC; assay: human ELISA vs IL-23; remark: listed apart in the source

Binder	IC50 (Rat IL-23R_huFC [2]) [nM]	IC50 (Rat IL-23R_huFC [3]) [nM]	pStat3 HTRF IC50 [4] [nM]	IC50 (IL23R_huFC [6]) [nM]	other results
XQTWQXYWLENG (Ac; Pen-Pen disulfide; hLeu; NH2) [Ac-[[Pen]-QTWQ-[Pen]-YW-[hLeu]-ENG-NH2]					IC50 (IL23R_huFC [1]): 100 to 1000 nM
B1					IC50 (IL23R_huFC [1]): 1000 to 10000 nM
Ac-[Abu]QTWQC[Phe(4-CONH2)][2Nal][αMeK]K(Ac)NG-NH2 (thioether 1-6) [Ac-Cyclo-[[Abu]-QTWQC]-[Phe(4-CONH2)]-[2-Nal][α-MeLys]-[Lys(Ac)]-NG-NH2]	10 to 25				
B2		25 to 100			
Ac-[Abu]NTWQC[Phe(4-OMe)(4)][2Nal][αMeK]K(Ac)NG-NH2 (thioether 1-6) [Ac-Cyclo-[[Abu]-NTWQC]-[Phe(4-OMe)]-[2-Nal][α-MeLys]-[Lys(Ac)]-NG-NH2]			< 10	10 to 25	IC50 (Rat IL-23R_huFC [5]): 25 to 100 nM
Ac-[Abu]QTWQC[Phe(4-OMe)(3)][2Nal][αMeK]K(Ac)NA-NH2 (thioether 1-6) [Ac-Cyclo-[[Abu]-QTWQC]-[Phe(4-OMe)]-[2-Nal][α-MeLys]-[Lys(Ac)]-NA-NH2]	10 to 25		< 10		IC50 (IL23R_huFC [7]): < 10 nM
Ac-[Abu]QTWQC[AEF][2Nal][αMeK]DNG-NH2 (thioether 1-6) [Ac-Cyclo-[[Abu]-QTWQC]-[Phe[4-(2-aminoethoxy)]]-[2-Nal][α-MeLys]-DNG-NH2]	10 to 25		< 10		IC50 (IL23R_huFC [7]): < 10 nM
Ac-[Abu]QTWQCY[2Nal][αMeK]ENG-NH2 (thioether 1-6) [Ac-Cyclo-[[Abu]-QTWQC]-Y-[2-Nal]-[α-MeLys]-ENG-NH2]	10 to 25				
Ac-[Abu]QT[Trp(6-Cl)]QC[AEF][2Nal][αMeK]ENG-NH2 (thioether 1-6) [Ac-Cyclo-[[Abu]-QT-[6-chloroTrp]-QC]-[Phe[4-(2-aminoethoxy)]]-[2-Nal]-[α-MeLys]-ENG-NH2]	10 to 25		< 10	10 to 25	
Ac-[Abu]QTWQC[Phe(4-OMe)(3)][2Nal][αMeK]K(Ac)NS-NH2 (thioether 1-6) [Ac-Cyclo-[[Abu]-QTWQC]-[Phe(4-OMe)]-[2-Nal][α-MeLys]-[Lys(Ac)]-NS-NH2]	10 to 25		< 10	10 to 25	
Ac-[Abu]QTWQC[Phe(4-OMe)][2Nal][αMeK]ENG-NH2 (thioether 1-6) [Ac-Cyclo-[[Abu]-QTWQC]-[Phe(4-OMe)]-[2-Nal]-[α-MeLys]-ENG-NH2]			< 10	10 to 25	IC50 (Rat IL-23R_huFC [5]): 25 to 100 nM
XQTWQXFXKKNG (Ac; Pen-Pen disulfide; Phe(4-OMe); 1-Nal; α-MeLys; Lys(Ac); NH2) [Ac-[Pen]-QTWQ-[Pen]-[Phe(4-OMe)]-[1-Nal]-[α-MeLys]-[Lys(Ac)]-NG-NH2]		100 to 1000			
B3		25 to 100			
Ac-[Abu]QTWQC[Phe(4-OMe)][2Nal][Aib]K(Ac)NG-NH2 (thioether 1-6) [Ac-Cyclo-[[Abu]-QTWQC]-[Phe(4-OMe)]-[2-Nal]-[Aib]-[Lys(Ac)]-NG-NH2]			< 10	10 to 25	IC50 (Rat IL-23R_huFC [5]): 25 to 100 nM
XQTWQCFXXKNG (as bracketed in name; thioether cyclo) [Ac-Cyclo-[[Abu]-QTWQC]-[Phe(4-OMe)]-[2-Nal]-[α-MeOrn]-[Lys(Ac)]-NG-NH2]	10 to 25		< 10	10 to 25	
Ac-[Abu]QTWQC[Phe(4-OMe)(3)][2Nal][αMeK]K(Ac)NG-NH2 (thioether 1-6) [Ac-Cyclo-[[Abu]-QTWQC]-[Phe(4-OMe)]-[2-Nal][α-MeLys]-[Lys(Ac)]-NG-NH2]	10 to 25				
XQTWQXFXKKNG (Ac; Pen-Pen disulfide; Phe(4-OMe); 2-Nal; α-MeLys; Lys(Ac); NH2) [Ac-[Pen]-QTWQ-[Pen]-[Phe(4-OMe)]-[2-Nal]-[α-MeLys]-[Lys(Ac)]-NG-NH2]		25 to 100			
XQTWQXFXKKNN (Ac; Pen-Pen disulfide; Phe(4-CONH2); 2-Nal; α-MeLys; Lys(Ac); NH2) [Ac-[Pen]-QTWQ-[Pen]-[Phe(4-CONH2)]-[2-Nal]-[α-MeLys]-[Lys(Ac)]-NN-NH2]		25 to 100			
XQTWQXFXKKNN (Ac; Pen-Pen disulfide; Phe[4-(2-aminoethoxy)]; 2-Nal; α-MeLys; Lys(Ac); NH2) [Ac-[Pen]-QTWQ-[Pen]-[Phe[4-(2-aminoethoxy)]-[2-Nal]-[α-MeLys]-[Lys(Ac)]-NN-NH2]		10 to 25			
